T1: PF3D7_0420300 D1 (Plasmodium falciparum, UniProt Q8I1N6 1956-2015)
T1 sequence: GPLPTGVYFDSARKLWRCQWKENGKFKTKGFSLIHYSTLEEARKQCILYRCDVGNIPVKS

B1: CACACA_site4200 (dsDNA)
DNA 1: TGTCCCCCTTTCTATGCACACTTTAAATTATTCAAA
DNA 2: TTTGAATAATTTAAAGTGTGCATAGAAAGGGGGACA
B2: CACACA_site407 (dsDNA)
DNA 1: ATATTATATTATATAACACACATTTTTCATAACACT
DNA 2: AGTGTTATGAAAAATGTGTGTTATATAATATAATAT
B3: CACACA_site2544 (dsDNA)
DNA 1: TATTATTTATTATATGCACACATCGAACTATTATTT
DNA 2: AAATAATAGTTCGATGTGTGCATATAATAAATAATA
B4: CACACA_site4748 (dsDNA)
DNA 1: GCCTTTTAGTATTTCACACACGTAAATGAGTATATC
DNA 2: GATATACTCATTTACGTGTGTGAAATACTAAAAGGC
B5: CACACA_negctrl_site146 (dsDNA)
DNA 1: TTTATAAAAAATTTTTTTTTTTTTTTTTAAATATAT
DNA 2: ATATATTTAAAAAAAAAAAAAAAAATTTTTTATAAA
B6: CACACA_site8829 (dsDNA)
DNA 1: TATGTAAAAAATTTAACACACACATATATATATATA
DNA 2: TATATATATATATGTGTGTGTTAAATTTTTTACATA
B7: CACACA_negctrl_site1559 (dsDNA)
DNA 1: ATATTAAAATGAAAATATAAAAAAAAAAAAAAAAAA
DNA 2: TTTTTTTTTTTTTTTTTTATATTTTCATTTTAATAT
B8: CACACA_site478 (dsDNA)
DNA 1: AAAAAAAAAAAAAAAACACACAAATCATAAATAAAT
DNA 2: ATTTATTTATGATTTGTGTGTTTTTTTTTTTTTTTT
B9: CACACA_site8226 (dsDNA)
DNA 1: TGATAACCTAATAATACACACACATGAATATATATA
DNA 2: TATATATATTCATGTGTGTGTATTATTAGGTTATCA
B10: CACACA_site4569 (dsDNA)
DNA 1: TTGCCCATTTCATTAACACACAAATGTTTATATTCT
DNA 2: AGAATATAAACATTTGTGTGTTAATGAAATGGGCAA
B11: CACACA_site1453 (dsDNA)
DNA 1: ATATTATGTGATTGTGCACACTGGAGATTTTTTTTA
DNA 2: TAAAAAAAATCTCCAGTGTGCACAATCACATAATAT
B12: CACACA_site6664 (dsDNA)
DNA 1: CATATATTTTGAAACACACACATATAAAATATACAT
DNA 2: ATGTATATTTTATATGTGTGTGTTTCAAAATATATG
B13: CACACA_negctrl_site1541 (dsDNA)
DNA 1: TGCTAATAATTATTTGTTTAGCAACAAAAAAAAAAA
DNA 2: TTTTTTTTTTTGTTGCTAAACAAATAATTATTAGCA
B14: CACACA_negctrl_site29 (dsDNA)
DNA 1: TTTTTTTTTTTTTTTTTTTTTTTGCTCAGTGTGGTA
DNA 2: TACCACACTGAGCAAAAAAAAAAAAAAAAAAAAAAA
B15: CACACA_site7314 (dsDNA)
DNA 1: CAATGTTAACATATTACACACATATGTATTTATAAC
DNA 2: GTTATAAATACATATGTGTGTAATATGTTAACATTG
B16: CACACA_site5088 (dsDNA)
DNA 1: CCAACATAGAGGGGCACACACATATATACCTAAAAA
DNA 2: TTTTTAGGTATATATGTGTGTGCCCCTCTATGTTGG
B17: CACACA_site254 (dsDNA)
DNA 1: TTTAATTATAAGATAACACACAAAAAAAATAAAATA
DNA 2: TATTTTATTTTTTTTGTGTGTTATCTTATAATTAAA
B18: CACACA_site2604 (dsDNA)
DNA 1: GAAAATATTACATACACGCACACATTAATATATTTA
DNA 2: TAAATATATTAATGTGTGCGTGTATGTAATATTTTC
B19: CACACA_negctrl_site1638 (dsDNA)
DNA 1: ACATGTATACTTTTTACGAAAAAAAAAAAAAAAAAA
DNA 2: TTTTTTTTTTTTTTTTTTCGTAAAAAGTATACATGT
B20: CACACA_site8811 (dsDNA)
DNA 1: TTAAAAATATATATAACACACACATAATATATATAT
DNA 2: ATATATATATTATGTGTGTGTTATATATATTTTTAA
B21: CACACA_site6811 (dsDNA)
DNA 1: CATATAAAGATATGAACACACAAAAAGAATATTTCC
DNA 2: GGAAATATTCTTTTTGTGTGTTCATATCTTTATATG
B22: CACACA_site4181 (dsDNA)
DNA 1: GGATATATTTTATGTACACACACATATAAGGGATTA
DNA 2: TAATCCCTTATATGTGTGTGTACATAAAATATATCC
B23: CACACA_site1373 (dsDNA)
DNA 1: TACAAAATATATATGACACACATAAAAAAAAGTATA
DNA 2: TATACTTTTTTTTATGTGTGTCATATATATTTTGTA
B24: CACACA_negctrl_site412 (dsDNA)
DNA 1: ATAAAAAGGTTTAAAAAAAAAAAAAAAAAAAAAAAA
DNA 2: TTTTTTTTTTTTTTTTTTTTTTTTAAACCTTTTTAT
B25: CACACA_site2206 (dsDNA)
DNA 1: AAAAAAAACACGCGCACACACACACCCACCCACCGA
DNA 2: TCGGTGGGTGGGTGTGTGTGTGCGCGTGTTTTTTTT
B26: CACACA_negctrl_site1508 (dsDNA)
DNA 1: TTTTACTCTTAAAATAATAAAAAATATTCACATTTA
DNA 2: TAAATGTGAATATTTTTTATTATTTTAAGAGTAAAA
B27: CACACA_site9117 (dsDNA)
DNA 1: AAAAAAAAAAAAAAAACACACATACACCCCCACCCA
DNA 2: TGGGTGGGGGTGTATGTGTGTTTTTTTTTTTTTTTT
B28: CACACA_site5336 (dsDNA)
DNA 1: TATAATAATAAAAACACACACGTTGATTGTATTAGC
DNA 2: GCTAATACAATCAACGTGTGTGTTTTTATTATTATA
B29: CACACA_negctrl_site1405 (dsDNA)
DNA 1: ATGAAAAAAAAAAAAAAAAAAAAAAAAAAAAAAAAA
DNA 2: TTTTTTTTTTTTTTTTTTTTTTTTTTTTTTTTTCAT
B30: CACACA_site9348 (dsDNA)
DNA 1: TATATTTTGTTCTTTCCACACACAAATACATATATT
DNA 2: AATATATGTATTTGTGTGTGGAAAGAACAAAATATA
B31: CACACA_negctrl_site896 (dsDNA)
DNA 1: TGATTAAAAGAGGGAAAAAAAAAAAAAAAAAAAAAA
DNA 2: TTTTTTTTTTTTTTTTTTTTTTCCCTCTTTTAATCA
B32: CACACA_site3328 (dsDNA)
DNA 1: TGTATTTATAGCAATACACACATAACAATAAATATA
DNA 2: TATATTTATTGTTATGTGTGTATTGCTATAAATACA
B33: CACACA_site8720 (dsDNA)
DNA 1: TATGTATTAAATTTTACACACATGATTCTCTATATG
DNA 2: CATATAGAGAATCATGTGTGTAAAATTTAATACATA
B34: CACACA_site6737 (dsDNA)
DNA 1: TAAAAAATAAAATACACACACATATTTATATTTATA
DNA 2: TATAAATATAAATATGTGTGTGTATTTTATTTTTTA
B35: CACACA_site6075 (dsDNA)
DNA 1: AATAAATAAGCACATACACACATACATACATACATA
DNA 2: TATGTATGTATGTATGTGTGTATGTGCTTATTTATT
B36: CACACA_site632 (dsDNA)
DNA 1: ATATAATATTAGTGCACACACAAAAATGTACTAAAC
DNA 2: GTTTAGTACATTTTTGTGTGTGCACTAATATTATAT
B37: CACACA_site2783 (dsDNA)
DNA 1: TATGAAAGAAATAGTACACACATAAACATTTGTAAA
DNA 2: TTTACAAATGTTTATGTGTGTACTATTTCTTTCATA
B38: CACACA_site76 (dsDNA)
DNA 1: GGCAGCAATTTAGTTACACACATATATAGGTATACA
DNA 2: TGTATACCTATATATGTGTGTAACTAAATTGCTGCC
B39: CACACA_site4699 (dsDNA)
DNA 1: AAACAGAAGACATATACACACATACAAAAAAGTGCA
DNA 2: TGCACTTTTTTGTATGTGTGTATATGTCTTCTGTTT
B40: CACACA_site2584 (dsDNA)
DNA 1: ATTGCTTTTCTTTTTGCACACTTATGCATATATATA
DNA 2: TATATATATGCATAAGTGTGCAAAAAGAAAAGCAAT
B41: CACACA_negctrl_site1119 (dsDNA)
DNA 1: ATTTTTTTTTTTTTTTTTTTTTTTTGGAGAAAGAGA
DNA 2: TCTCTTTCTCCAAAAAAAAAAAAAAAAAAAAAAAAT
B42: CACACA_site2997 (dsDNA)
DNA 1: CATAATTATGCAATTGCACACAACTATCATTTTTTT
DNA 2: AAAAAAATGATAGTTGTGTGCAATTGCATAATTATG
B43: CACACA_site6753 (dsDNA)
DNA 1: GAAGTAATTTCATATACACACATATACATACATACA
DNA 2: TGTATGTATGTATATGTGTGTATATGAAATTACTTC
B44: CACACA_site8696 (dsDNA)
DNA 1: TGGGAAAAAATATATGCACACCCCCCAAAAAAAAAA
DNA 2: TTTTTTTTTTGGGGGGTGTGCATATATTTTTTCCCA

Biological target: T1, PF3D7_0420300 D1
Experiment: gcPBM; about 25 ug protein; PBS, 1% milk, 0.2 mg/ml BSA, salmon testes DNA, 0.03% Triton X-100
Details: tags: N-terminal GST (pGEX-4T-1), kept; label: surface-attached array probe

Binder | binding signal
B1 | 9.68 ln median PBM intensity, better of two orientations
B2 | 9.58 ln median PBM intensity, better of two orientations
B3 | 9.56 ln median PBM intensity, better of two orientations
B4 | 9.63 ln median PBM intensity, better of two orientations
B5 | 8.66 ln median PBM intensity, better of two orientations
B6 | 9.57 ln median PBM intensity, better of two orientations
B7 | 8.43 ln median PBM intensity, better of two orientations
B8 | 9.63 ln median PBM intensity, better of two orientations
B9 | 9.76 ln median PBM intensity, better of two orientations
B10 | 9.7 ln median PBM intensity, better of two orientations
B11 | 9.58 ln median PBM intensity, better of two orientations
B12 | 9.81 ln median PBM intensity, better of two orientations
B13 | 8.69 ln median PBM intensity, better of two orientations
B14 | 8.55 ln median PBM intensity, better of two orientations
B15 | 9.55 ln median PBM intensity, better of two orientations
B16 | 9.64 ln median PBM intensity, better of two orientations
B17 | 9.6 ln median PBM intensity, better of two orientations
B18 | 9.59 ln median PBM intensity, better of two orientations
B19 | 8.58 ln median PBM intensity, better of two orientations
B20 | 9.8 ln median PBM intensity, better of two orientations
B21 | 9.72 ln median PBM intensity, better of two orientations
B22 | 9.74 ln median PBM intensity, better of two orientations

Binder | binding signal
B23 | 9.69 ln median PBM intensity, better of two orientations
B24 | 8.38 ln median PBM intensity, better of two orientations
B25 | 10.7 ln median PBM intensity, better of two orientations
B26 | 8.65 ln median PBM intensity, better of two orientations
B27 | 10.7 ln median PBM intensity, better of two orientations
B28 | 9.66 ln median PBM intensity, better of two orientations
B29 | 8.53 ln median PBM intensity, better of two orientations
B30 | 9.82 ln median PBM intensity, better of two orientations
B31 | 8.33 ln median PBM intensity, better of two orientations
B32 | 9.56 ln median PBM intensity, better of two orientations
B33 | 9.65 ln median PBM intensity, better of two orientations
B34 | 9.78 ln median PBM intensity, better of two orientations
B35 | 9.71 ln median PBM intensity, better of two orientations
B36 | 9.79 ln median PBM intensity, better of two orientations
B37 | 9.73 ln median PBM intensity, better of two orientations
B38 | 9.67 ln median PBM intensity, better of two orientations
B39 | 9.75 ln median PBM intensity, better of two orientations
B40 | 9.72 ln median PBM intensity, better of two orientations
B41 | 8.63 ln median PBM intensity, better of two orientations
B42 | 9.61 ln median PBM intensity, better of two orientations
B43 | 9.62 ln median PBM intensity, better of two orientations
B44 | 10.7 ln median PBM intensity, better of two orientations

Source: publication PMC11417369, “DNA sequence and chromatin differentiate sequence-specific transcription factor binding in the human malaria parasite Plasmodium falciparum”
